Assay results reported in patent US20050065076.

System: C100Flag recombinant protein (Met + APP695 C-terminal fragment + Flag)
Sequence (chain, as listed by the source): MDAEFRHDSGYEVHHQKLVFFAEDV

Substance: γ3 protease in a membrane preparation from HeLa S3 cells
- γ-secretase activity (cleavage of the substrate, Aβ products detected by ECL): significant γ-secretase activity remains at pH 6.0 (the pH optimum for γ-secretase activity associated with γ3 protease)
